Test results from publication doi:10.1101/479162v2.
Numbering of substitutions follows the chain as printed. In names and notes the source's numbering stands.

B1: SpAS1 (arylsulfatase 1 from Silicibacter pomeroyi DSS-3), purified (Ruegeria pomeroyi DSS-3) (protein)
chain: MTQNRNILWIMCDQLRFDYLSCYGHERLNTPNIDKLAKRGVRFTNAYVQATVCGPSRMSAYTGRYVRSHGSTQNGIPLRVGEPTLGDHLRDVGMRNVLIGKTHMRPDLDGMKRLGIDPDSEIGARVGEGGFDAFDRDDGVHPTGYRKKEPAYNDYLRHAGFQAENPWEFWANSAEGKGGENQSGWLLTHADKPARVPEEHSETAYMTRRAMEFMEAAEKDGRPWCAHLSYIKPHWPYIVPAPYHDMFGPDDVKPAVRSDEELKAAHPLFKAMTEEVYSRNFARDEVREKVIPAYMGLIKQIDDQLGQLFAFMQERGLDENTMIVFTADHGDYLGDHWMGEKYLFYEAAAKVPLIIYDPSDKADATRGTVSDALVEMIDLAPTFVDYAGGVPPMHILEGKSLLPLLHDDDSSWDRQYVFSELDYSNLPARLKLGRDIQDCRATMVFDGRYKLVEVMGFAPILFDLEVDPDELKDLGRDPSAEEVRQRLTSALDAWHRNTRQRITKSDAAYRALDPVLRESDPDLMAGVIIGYWDEDEVEAEKRRIARILGENS
B2: SpAS1 (arylsulfatase 1 from Silicibacter pomeroyi DSS-3), purified (Ruegeria pomeroyi DSS-3; K147E/M111T) (protein)
chain: B1 chain with M111T, K147E
B3: SpAS1 (arylsulfatase 1 from Silicibacter pomeroyi DSS-3), purified (Ruegeria pomeroyi DSS-3; R429Q) (protein)
chain: B1 chain with R429Q

Columns and labels:
Conditions in all cases: KSI (substrate inhibition) also fitted
purified protein [1] = substrate: O=[N+]([O-])c1ccc(OS(=O)(=O)O)cc1; experiment: purified protein
[2] = substrate: O=C1OC2(c3ccc(OS(=O)(=O)O)cc3Oc3cc(OS(=O)(=O)O)ccc32)c2ccccc21; experiment: fluorescence, Michaelis-Menten kinetics of purified enzyme; assay type: biochemical, Ruegeria pomeroyi
purified protein [3] = substrate: O=C1OC2(c3ccc(OS(=O)(=O)O)cc3Oc3cc(OS(=O)(=O)O)ccc32)c2ccccc21; experiment: purified protein

Protein | Km (purified protein [1]) | kcat (purified protein [1]) | Km [2] | kcat [2] | Km (purified protein [3]) | kcat (purified protein [3])
B1 | 7.1 ± 1.7 mM | 34 ± 5 s⁻¹ | 4.5 ± 0.5 mM | 0.116 ± 0.004 s⁻¹ | – | –
B2 | 3.4 ± 0.3 mM | 100 ± 4 s⁻¹ | – | – | 2.4 ± 0.2 mM | 0.074 ± 0.002 s⁻¹
B3 | 7.3 ± 1.5 mM | 26 ± 3 s⁻¹ | 1.0 ± 0.1 mM | 0.77 ± 0.04 s⁻¹ | – | –
